Results reported in patent US5858973, “Transcription factor and uses therefor” (The General Hospital Corporation).

Legend:
[1] = target: T1, IDX-1 (GST fusion, full length) (Rattus norvegicus, UniProt P52947 SEQ:1-283); assay: EMSA; data not shown; protein preparation not stated; details: tags: N-terminal GST (pGEX-KG), bacterially expressed
[2] = target: IDX-1 (IDX-1/pBJ5 expressed in NIH-3T3) (Rattus norvegicus, UniProt P52947 SEQ:1-283); assay: cell_activity; CAT reporter in NIH-3T3
Source text: Several different reporter constructs were used in cotransfection experiments with IDX-1/pBJ5 expression vector. The SMS900CAT plasmid consists of nucleotides −900 to +54, relative to the transcription start site, of the rat somatostatin gene linked 5' to the coding sequence of the bacterial chloramphenicol acetyl transferase (CAT) gene (Powers et al., 1989, supra). The plasmid SMS900(Δ−250/−120)CAT is identical to SMS900CAT with the exception of an internal deletion between nucleotides −250 and −120. This deletion removes a putative transcriptional suppressor region located between nucleotides −237 and −189 of the rat somatostatin gene (Vallejo et al., in preparation). SMS(−900/−250) TKCAT contains −900 to −250 of the rat somatostatin gene linked 5' to the herpes simplex thymidine kinase promoter in the CAT reporter plasmid PUTKAT (Prost and Moore, 1986, Gene 45:107). The plasmids SMS900CAT(TAAT1mut), SMS900CAT(TAAT2mut) and SMS900CAT(UE-Bmut) were created using oligonucleotide-directed mutagenesis (Kunkel, 1985, Proc. Natl. Acad. Sci. USA 82:488) to introduce clustered nucleotide substitutions in the IDX-1 binding sites located at −450, −290, and —90, respectively, within the SMS900CAT reporter. For SMS-TAAT1, the central 5'-ATTAAT-3' was converted to 5'-GCCGGC-3'. […]

[3] = target: T1, IDX-1 (GST fusion, full length); assay: EMSA; appears weaker than SMS-TAAT1; details: tags: N-terminal GST (pGEX-KG), bacterially expressed; label: 32P
Protocol: (§1) Electrophoretic mobility shift assays (EMSA) were performed as described (Ron et al., 1990, Mol. and Cell. Biol. 10:1023) using bacterially-expressed IDX-1 or nuclear extracts prepared from RIN1027-B2 cells (Dignam et al., 1983, supra). PCR was used to generate a bacterial expression vector encoding the full length IDX-1 protein fused to glutathione S-transferase(GST). An oligonucleotide amplimer was designed to create an NcoI site at the initiation methionine of the IDX-1 cDNA. This primer was used in conjunction with the T3 primer to amplify the IDX-1 cDNA insert from an IDX-1/pBS(KS) subclone. The PCR product was digested with NcoI and XhoI, gel-purified, and ligated into NcoI/XhoI-cut pGEX-KG (Pharmacia Biotech Inc., Piscataway, N.J.). Expression and purification of the GST/IDX-1 fusion protein was performed as described (Smith and Johnson, 1988, supra).
(§2) Nuclear extracts form RIN1027-B2 cells or purified bacterially-expressed GST/IDX-1 were incubated with the following ^32P-labelled double-stranded oligonucleotide probes: 1) INS1-FLAT, the Far-linked AT-rich element of the rat insulin 1 gene (German et al., 1992, Mol. Cell. Biol. 12:1777) (5'-[…]-3'); 2) SMS-TAAT1, a FLAT-like element (5'-[…] […]

[4] = target: T1, IDX-1 (GST fusion, full length); assay: EMSA; several complexes; details: tags: N-terminal GST (pGEX-KG), bacterially expressed; label: 32P
Protocol: as §1, §2

[5] = target: T1, IDX-1 (GST fusion, full length); assay: EMSA; details: tags: N-terminal GST (pGEX-KG), bacterially expressed; label: 32P
Protocol: as §1, §2

T1 sequence (P52947 other isoform, or with tags, fused parts or gaps): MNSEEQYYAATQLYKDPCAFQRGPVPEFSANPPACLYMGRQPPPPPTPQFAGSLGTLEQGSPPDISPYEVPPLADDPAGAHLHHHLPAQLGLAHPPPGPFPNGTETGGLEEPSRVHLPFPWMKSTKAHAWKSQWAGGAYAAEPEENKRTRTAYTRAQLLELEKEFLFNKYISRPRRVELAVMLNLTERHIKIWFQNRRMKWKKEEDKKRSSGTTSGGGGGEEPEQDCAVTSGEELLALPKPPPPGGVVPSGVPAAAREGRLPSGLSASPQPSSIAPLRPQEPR
Sequence of IDX-1 (IDX-1/pBJ5 expressed in NIH-3T3) (P52947 other isoform, or with tags, fused parts or gaps): as above

B1: SMS-UE-B mutant (dsDNA)
DNA 1: GATCCGCGAGGTCGGCAGTGCGTAAAAGCACTGGTGA
DNA 2: TCACCAGTGCTTTTACGCACTGCCGACCTCGCGGATC
modifications: [12-17]
- binding result [1]: no binding

B2: 6x SMS-TAAT1 in SMS65CAT (dsDNA)
DNA 1: GATCCCTGATTGCATATTAATTCTCAGATA
DNA 2: TATCTGAGAATTAATATGCAATCAGGGATC
- activity [2]: 34 fold

B3: SMS-TAAT1 mutant (dsDNA)
DNA 1: GATCCCTGATTGCATGCCGGCTCTCAGATA
DNA 2: TATCTGAGAGCCGGCATGCAATCAGGGATC
modifications: [16-21]
- binding result [1]: no binding

B4: SMS-TAAT2 mutant (dsDNA)
DNA 1: GATCCGATCTCAGCGGCCGATCATGCACCA
DNA 2: TGGTGCATGATCGGCCGCTGAGATCGGATC
modifications: [14-19]
- binding result [1]: no binding

B5: SMS-TAAT2 (dsDNA)
DNA 1: GATCCGATCTCAGTAATTAATCATGCACCA
DNA 2: TGGTGCATGATTAATTACTGAGATCGGATC
- binding result [3]: binds

B6: INS1-FLAT (dsDNA)
DNA 1: GATCCTTGTTAATCTAATTACCCTAGGTCTAA
DNA 2: TTAGACCTAGGGTAATTAGATTAACAAGGATC
- binding result [4]: binds

B7: SMS-UE-B (dsDNA)
DNA 1: GATCCGCGAGGCTAATGGTGCGTAAAAGCACTGGTGA
DNA 2: TCACCAGTGCTTTTACGCACCATTAGCCTCGCGGATC
- binding result [5]: binds

B8: SMS-PS (dsDNA)
DNA 1: GATCCAGGCAAGATTATTTGGTCA
DNA 2: TGACCAAATAATCTTGCCTGGATC
- binding result [5]: no binding
